Data on one molecule can be found in paper PMC6094050, “O-GlcNAcylation Signal Mediates Proteasome Inhibitor Resistance in Cancer Cells by Stabilizing NRF1” (Molecular and Cellular Biology, 2018).

The experiment concerns the target T1, GST–HCF-1-C (GST fusion of the C-terminal half of human HCF-1, 1012–2036) (human, UniProt P51610 1012-2035).
T1 construct: HCF-1 (host cell factor C1), human, C-terminal half, residues 1012-2036 as printed; the printed end 2036 may count the stop codon; also called pGEX4T-1-hHCF-1-C; source: E. coli BL21(DE3), purified from soluble lysates
T1 sequence (looked up): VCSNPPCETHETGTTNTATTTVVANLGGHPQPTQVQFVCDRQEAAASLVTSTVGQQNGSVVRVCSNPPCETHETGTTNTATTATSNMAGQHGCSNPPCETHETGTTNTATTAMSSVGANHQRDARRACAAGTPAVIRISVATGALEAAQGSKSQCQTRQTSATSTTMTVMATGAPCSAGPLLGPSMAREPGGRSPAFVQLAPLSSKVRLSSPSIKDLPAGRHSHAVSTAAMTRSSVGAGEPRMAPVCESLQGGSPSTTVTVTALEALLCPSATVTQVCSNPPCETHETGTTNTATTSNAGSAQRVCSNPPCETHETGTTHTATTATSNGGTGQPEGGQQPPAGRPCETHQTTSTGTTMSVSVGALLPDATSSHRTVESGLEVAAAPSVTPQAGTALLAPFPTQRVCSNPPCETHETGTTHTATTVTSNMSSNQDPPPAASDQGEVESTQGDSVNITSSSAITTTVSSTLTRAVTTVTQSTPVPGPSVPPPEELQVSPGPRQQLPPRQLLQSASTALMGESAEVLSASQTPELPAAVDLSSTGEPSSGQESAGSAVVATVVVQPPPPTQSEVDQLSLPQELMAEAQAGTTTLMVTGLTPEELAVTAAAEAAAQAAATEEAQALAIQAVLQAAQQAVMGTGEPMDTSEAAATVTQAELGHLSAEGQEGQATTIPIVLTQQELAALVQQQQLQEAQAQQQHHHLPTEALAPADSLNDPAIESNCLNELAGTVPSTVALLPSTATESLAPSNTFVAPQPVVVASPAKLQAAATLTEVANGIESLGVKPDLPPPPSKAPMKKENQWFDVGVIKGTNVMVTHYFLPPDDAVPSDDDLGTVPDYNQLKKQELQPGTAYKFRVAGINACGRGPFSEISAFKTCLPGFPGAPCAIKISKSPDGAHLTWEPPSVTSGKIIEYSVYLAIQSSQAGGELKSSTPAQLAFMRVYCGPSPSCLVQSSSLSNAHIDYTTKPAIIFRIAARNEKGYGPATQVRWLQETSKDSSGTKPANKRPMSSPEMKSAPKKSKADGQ
Description: pull-down; glutathione-Sepharose-immobilized GST-OGT and GST–HCF-1-C incubated with recombinant His6-tagged NRF1 fragments Fr. 1 and Fr. 2; washed extensively with PBS-T; immunoblot with anti-His6 and anti-GST. The note with it: both partners purified. (In general: Immunoblotting shows a protein as a band on a membrane.)

B1: mNRF1-Neh6L-His6 (Fr. 2; 431–580) (domain or fragment, mouse, UniProt Q61985 431-580, looked up)
chain: GFNPVQASQLEEEFDSDSGLSLDSSHSPSSLSSSEGSSSSSSSSSSSSASSSASSSFSEEGAVGYSSDSETLDLEEAEGAVGYQPEYSKFCRMSYQDPSQLSCLPYLEHVGHNHTYNMAPSALDSADLPPPSTLKKGSKEKQADFLDKQM
notes: NRF1, mouse, Neh6L domain, residues 431-580; The name is printed both as NRF1-Neh6L-His6 and as His6-NRF1-Neh6L; also called His6-NRF1-Neh6L; fragment 2; source: E. coli BL21(DE3), purified (Ni-NTA agarose)
In the case of B1, the binding result is listed as “binds”.
